In patent US20030108957A1 one finds millipolarization over the background and decrease of the millipolarization reading after preincubation (millipolarization units) data, which are given here for two substances.

One experiment addresses GroEL (E. coli) (UniProt P0A6F5).
The target of experiment [1] is guanyl-nucleotide binding protein Ras (21 kDa). Nature of the experiment: competition fluorescence polarization: 4 µM Ras (negative control) preincubated with 4 µM unlabeled pyrrhocoricin, then 1 nM fluorescein-K-pyrrhocoricin; used as the correction for the DnaK and GroEL readings.
Experiment [2] has the same target. Nature of the experiment: competition fluorescence polarization: 4 µM Ras (negative control) preincubated with 8 µM unlabeled pyrrhocoricin, then 1 nM fluorescein-K-pyrrhocoricin; used as the correction for the DnaK and GroEL readings. On the technique in general: Fluorescence polarisation rises when a labelled molecule tumbles more slowly, as on binding a larger partner.

As for “fluorescein-labeled β-tubulin fragment aa434-445 (peptide)”, the millipolarization over the background in the experiment with GroEL (E. coli) was found to be 50%.

As for “pyrrhocoricin (unlabeled, all L-amino acids, without sugar) (peptide)”, the decrease of the millipolarization reading after preincubation (millipolarization units) in experiment [1] came to 16; in experiment [2] it was 27.
